Key:
[1] = biological target: T1, α-synuclein amyloid fibrils (unlabeled) (UniProt P37840 1-140); experiment: 30 °C
[2] = biological target: T1, α-synuclein amyloid fibrils (unlabeled); experiment: 7 °C
[3] = biological target: T1, α-synuclein amyloid fibrils (unlabeled); experiment: 10 °C
[4] = biological target: T1, α-synuclein amyloid fibrils (unlabeled); experiment: 17 °C
[5] = biological target: T1, α-synuclein amyloid fibrils (unlabeled); experiment: 37 °C

Kd [1]: 0.0575 µM
Kd [2]: 45.3 µM
Kd [3]: 12.3 µM
Kd [4]: 6.1 µM
Kd [5]: < 0.0103 µM
B1: GFP-labeled αB-crystallin (αB-c-TEV site-GFP-His tag) (natural protein)
chain: MDIAIHHPWIRRPFFPFHSPSRLFDQFFGEHLLESDLFPTSTSLSPFYLRPPSFLRAPSWFDTGLSEMRLEKDRFSVNLDVKHFSPEELKVKVLGDVIEVHGKHEERQDEHGFISREFHRKYRIPADVDPLTITSSLSSDGVLTVNGPRKQVSGPERTIPITREEKPAVTAAPKK

Source: article PMC8463877 (2021)
